Common to all, as to experiment: bead flow cytometry, AUC minus CD4
Background: A flow cytometer gives signals particle by particle.

In test [1] the target is SARS-CoV-2 spike N-terminal domain (NTD), recombinant (SARS-CoV-2, UniProt P0DTC2 14-305).
Test [2] deals with SARS-CoV-2 spike receptor binding domain (RBD), recombinant (SARS-CoV-2, UniProt P0DTC2 319-541).
The target of test [3] is T1, HCoV-NL63 spike protein (Sino Biological 40604-V08B) (HCoV-NL63, UniProt Q6Q1S2 19-1296).
T1 sequence: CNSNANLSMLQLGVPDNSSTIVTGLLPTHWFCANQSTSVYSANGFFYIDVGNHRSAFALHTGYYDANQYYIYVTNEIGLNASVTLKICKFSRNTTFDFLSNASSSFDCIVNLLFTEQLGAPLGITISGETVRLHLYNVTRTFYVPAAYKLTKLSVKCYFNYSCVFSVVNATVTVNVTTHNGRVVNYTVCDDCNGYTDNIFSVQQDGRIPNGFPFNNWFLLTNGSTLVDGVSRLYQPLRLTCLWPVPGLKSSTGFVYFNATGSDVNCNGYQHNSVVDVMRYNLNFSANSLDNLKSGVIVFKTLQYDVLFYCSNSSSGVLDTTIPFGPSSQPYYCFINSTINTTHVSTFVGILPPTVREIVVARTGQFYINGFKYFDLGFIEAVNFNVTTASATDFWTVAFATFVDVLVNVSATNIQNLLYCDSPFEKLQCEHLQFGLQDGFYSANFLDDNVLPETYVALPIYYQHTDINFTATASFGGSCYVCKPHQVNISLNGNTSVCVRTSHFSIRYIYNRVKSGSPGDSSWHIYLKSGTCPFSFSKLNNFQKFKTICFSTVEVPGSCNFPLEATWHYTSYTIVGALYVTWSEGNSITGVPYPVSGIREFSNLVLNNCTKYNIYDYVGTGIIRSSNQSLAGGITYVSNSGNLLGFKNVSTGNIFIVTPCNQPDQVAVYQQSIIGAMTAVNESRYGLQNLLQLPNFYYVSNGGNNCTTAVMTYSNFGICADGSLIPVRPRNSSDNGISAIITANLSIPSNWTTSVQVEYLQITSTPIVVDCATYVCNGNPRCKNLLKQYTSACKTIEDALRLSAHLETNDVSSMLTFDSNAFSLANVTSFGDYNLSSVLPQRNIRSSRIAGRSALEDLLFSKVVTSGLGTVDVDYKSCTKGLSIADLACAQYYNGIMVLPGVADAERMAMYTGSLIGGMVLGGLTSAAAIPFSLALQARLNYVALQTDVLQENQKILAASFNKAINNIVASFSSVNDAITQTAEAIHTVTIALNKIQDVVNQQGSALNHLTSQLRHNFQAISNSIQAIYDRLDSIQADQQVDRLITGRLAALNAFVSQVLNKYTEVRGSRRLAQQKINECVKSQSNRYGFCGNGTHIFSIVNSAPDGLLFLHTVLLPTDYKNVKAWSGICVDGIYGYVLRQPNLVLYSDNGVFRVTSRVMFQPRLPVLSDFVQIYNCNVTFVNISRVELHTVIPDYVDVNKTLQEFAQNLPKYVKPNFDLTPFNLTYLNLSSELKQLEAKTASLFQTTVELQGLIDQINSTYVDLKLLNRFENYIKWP

Substitutions are numbered along the chain they refer to.

B1: COV30-35 (antibody, V domains shown)
VH: QVQLQESGPGQVKPSGTLSLTCAVSGGSINSSNWWSWVRQPPGKGLEWIGEIFHSGNTNYKPSLESRVTISFDKSKKELSLRLTSVTAADTAVYYCATLFCSGGTCYLGDWGQGTLVTVSS
VL: EIVLTQSPGTLSVSPGQRATLSCRASESVSSRYVAWYQQKPGQAPRLIIYGASSRATGIPDRFSGSGSGTEFILSISRLEPEDSAVYYCQQYGSSPTFGGGTKVEIK
As to B1, the binding result in test [1], in test [2] and in test [3] was “no binding (tested: 200 µg/mL)” in each case.

B2: COV78-36 (antibody, V domains shown)
VH: EVQLVQSGAEVKKPGESLRISCKGSGYSFSNSWITWVRQMPGKGLEWVGRIDTRDSRTAYSPSFEGHVFFSADRSSDTVYVQWRSLRASDTAVYYCTTGAGVVIAASYFWGQGTLVTVSS
VL: QSALTQPPSASGSPGQPVTISCTGTSSDVGGYEYVSWYQQLPGKVPTLIIHEVSKRPSGVPDRFSGSKSGNTASLTVSGLQAEDEADYYCSSYSADSSIIFGGGTKLTVL
On to B2, for which the binding result in test [1] and in test [2] was “no binding (tested: 200 µg/mL)” throughout.

B3: COV30-80 (antibody, V domains shown)
VH: QVQLVESGGGVVQPGRSLRLSCAASGFTFSSYAMHWVRQAPGKGLEWVAVISYDGNNAFYADSVKGRFTISRDNSKNTVYVQMDSLRAEETAVYYCARAGYNSNWDLGDALDIWGQGTMVTVSS
VL: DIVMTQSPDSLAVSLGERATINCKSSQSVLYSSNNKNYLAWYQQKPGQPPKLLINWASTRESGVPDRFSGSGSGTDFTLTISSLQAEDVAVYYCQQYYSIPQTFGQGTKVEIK
Take B3: the binding result in test [1] and in test [2] was “no binding (tested: 200 µg/mL)” throughout.

B4: COV44-62 (antibody, V domains shown)
VH: QMQLMQSGAEVKKPGASVTVSCKASGDTFSDYRIHWVRQAPGQGLEWMGRMNPKSGDTNFAQKFQGRVTMTRDMSINTAYMTLSGLTFDDTALYYCASLLIVGGFDPLDDFEVWGQGTMVTISS
VL: QSALTQPPSASGSPGQSVTISCSGTSSDVGGYNFVSWYQHHPGKAPKILIYEVTKRPSGVPDRFSGSKSGNTASLTVSGLQAEDEADYYCSSYGGTNNLLFGGGTKLTVL
On to B4, for which, in test [1], the binding result is reported as “no binding (tested: 200 µg/mL)”.

B5: COV77-05 (antibody, V domains shown)
VH: QMQLHESGPGLVKPSQTLSLTCAVSGGSISSDGYYWNWVRQHPGKGLELIAYIYYNGRPYYNPSLRSRVNISLDTSMNQFSLRMKSLTAADTAVYYCARGRLGYCAGGSCFLESFDYWGQGALVTVSS
VL: EIVMTQSPATLSVSPGETATLSCRASESISSNLAWYQQKPGQAPRLLIYGASTRATGIPARFSGSGSGTEFALTISSLQAEDFAVYSCQQYHNWLLTFGGGTKVEIK
As for B5, the binding result in test [1], in test [2] and in test [3] was “no binding (tested: 200 µg/mL)” in each case.

B6: COV44-79 (antibody, V domains shown)
VH: QVQLVESGGGVVQPGRSLRLSCAASGLTFSGYAMHWVRQAPGKGLEWVAVISRDARNKYYADSVKGRFTISRDNSKKTVYLEMNSLRVEDTAVYYCAILIIPGITEPGSPDALDIWGQGTMVSVSS
VL: DIQMTQSPSSMSASVGDRVTITCRASQDISKWLAWYQQRPGKAPKLLIYAASSLQSGVPSRFSGSGSGTDFTLTISSLQPEDFATYYCQQASSFPWSITFGQGTRLEIR
Consider B6, for which the binding result in test [1] is “no binding (tested: 200 µg/mL)”.

B7: COV91-27 (antibody, V domains shown)
VH: QVQLVESGGGVVHPGGSLRLSCAASGFTFSDFAMNWVRQAPGEGLQWVAIISYDGRNKHFAASVRGRFTISRDNSKNTMFLQMSSLRAEDTAIYYCATLGGWFEEASPTYWGRGTLVTVSS
VL: EVVLTQSPAIVSLSPGERATLSCRASQSVGSRLAWHQQKPGLAPRVLIYDASNRATGIPARFSGSGSGTDFTLTISSIEPEDSAVYYCQQRGDWPLITFGQGTRLEIK
Consider B7, for which the binding result in test [1] was “no binding (tested: 200 µg/mL)”.

B8: COV77-42 (antibody, V domains shown)
VH: QVYLQESGPGLVKPSQTLSLTCAVSGGSIRSDGYYWTWIRQHPGKGLEWIGNTYYNGNTYYNPSLRSRVTTSLDTSKNQFSLKVVSMTGADTAVYYCARGRLGFCAGGACFLDTLDYWGQGTLVTVSS
VL: EIVMTQSPVTLSVSPGERVTLSCRADQSVNNNLAWYQQKPGQAPRLLIHGASTRATGIPARFSGSGSGTEFTLTISSLQSEDFAIYYCQQYYNWLLTFGGGTKLEIK
On to B8, for which the binding result in test [1], in test [2] and in test [3] was “no binding (tested: 200 µg/mL)” each time.

B9: COV44-25 (antibody, V domains shown)
VH: QVQLVDSGGGAVQPGTSLRLSCAASGFTFNTYAFHWVRQAPGKGLEWVAVISDDGNNKYYADSVKGRFTISRDDSKNTLSLQMDSLRVEDAAVYFCARGSYNSNWSLGEYFDYWGQGSLVTVSS
VL: DIVMTQSPDSLPVSLGERATINCKSSQSVLHSSNNKNYLAWYQQKPGQSPKLLISWASTRESGVPDRFSGSGSGTHFTLTISSLRAEDVAVYYCLQYFNNQYTFGQGTKLEIK
On to B9, for which the binding result in test [1] and in test [2] was “no binding (tested: 200 µg/mL)” throughout.

B10: COV77-39 (antibody, V domains shown)
VH: RVQLQESGPGLVKPSETLSLTCTVSGGSITDDYWNWIRQPPGKGLEWIGYVHDSGTTNYNPSLKSRVTLSLHTSGNKFSLRLTSVTAADTAMYYCARTTTTFPFDSWGQGTLVIVSS
VL: SYELTQPPSVSVSLGQMARITCSGEALPKKYVYWYQQKPGQFPVLVIYKDRERPSGIPERFSGSSSGTIVTLTISGVQAEDEADYYCLSVDSTANWVFGGGTKLTVL
Turning to B10, the binding result in test [1] and in test [2] was “no binding (tested: 200 µg/mL)” each time.

B11: COV77-04 (antibody, V domains shown)
VH: QVRLQESGPGLVKPSETLSVTCTVSGVSISNYYWSWIRQPPGKGLEWIGYISDTGSTNYSPSLQSRVTISVDMSKNQVSLEVTSVTATDTAVYYCARTTTSVPFDYWGKGVLVTVSS
VL: SYELTQPPSVSVSPGQVARITCSGEALPKKYAYWYQHKPGQFPLLVIHKDSERPSGIPERFSGSSSGTVVTLTISGVQAEDEADYFCLSTDGSTTWVFGGGTKLTVL
With B11, the binding result in test [1] and in test [2] was “no binding (tested: 200 µg/mL)” throughout.

B12: COV89-22 (antibody, V domains shown)
VH: QEQLVQSGAEVKKPGASVKVSCKSSGFTFSYFYLHWVRQAPGQGLEWMGIINPRGDGTRYAQKFQGRVTMTRDASTGTLYMELRSLRSEDTAVYYCARGADHGAFDIWGQGTMVTVSS
VL: EIVLTQSPGTLSLSPGERATLSCRASQSVRRNYFAWYQQKRGQAPRLLIYDASTRATGIPDRFSGSGSGTDFTLTISRLEPEDFAVYYCQQYDSSPPMYIFGQGTKLEIK
With B12, the binding result in test [1] and in test [3] was “no binding (tested: 200 µg/mL)” in each case.

B13: COV57-03 (antibody, V domains shown)
VH: QVHLVESGGGVVQPGRSLRLSCAASGFTFSSFGMHWVRQAPGKGLEWVAVISDDGNNKFYADSVKGRFSISRDNSKNTLYLQMNSLRAEDTAVYYCVRAFRNSNWATGEYFDYWGQGTLVTVSS
VL: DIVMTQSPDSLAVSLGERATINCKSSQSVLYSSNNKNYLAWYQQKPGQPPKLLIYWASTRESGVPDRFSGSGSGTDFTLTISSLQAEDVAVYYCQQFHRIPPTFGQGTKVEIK
As to B13, the binding result in test [1] and in test [2] was “no binding (tested: 200 µg/mL)” in each case.

B14: COV57-04 (antibody, V domains shown)
VH: B13 VH with H3Q, S31N, K58E, D62G, A88P
VL: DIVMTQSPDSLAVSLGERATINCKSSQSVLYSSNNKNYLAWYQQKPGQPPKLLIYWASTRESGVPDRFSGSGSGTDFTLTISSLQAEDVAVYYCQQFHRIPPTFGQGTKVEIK
For the molecule B14, the binding result in test [1] and in test [2] was “no binding (tested: 200 µg/mL)” throughout.

(Values after patent publication US20250145690A1 (US Dept. of Health and Human Services, published 2025).)
